Source: IntAct's records for PubMed 19898420

B1: Abscisic acid receptor PYR1 (Arabidopsis thaliana (Mouse-ear cress)), O49686 (parent)
chain: MPSELTPEERSELKNSIAEFHTYQLDPGSCSSLHAQRIHAPPELVWSIVRRFDKPQTYKHFIKSCSVEQNFEMRVGCTRDVIVISGLPANTSTERLDILDDERRVTGFSIIGGEHRLTNYKSVTTVHRFEKENRIWTVVLESYVVDMPEGNSEDDTRMFADTVVKLNLQKLATVAEAMARNSGDGSGSQVT
B2: Abscisic acid receptor PYL2 (Arabidopsis thaliana (Mouse-ear cress)), O80992 (parent)
chain: MSSSPAVKGLTDEEQKTLEPVIKTYHQFEPDPTTCTSLITQRIHAPASVVWPLIRRFDNPERYKHFVKRCRLISGDGDVGSVREVTVISGLPASTSTERLEFVDDDHRVLSFRVVGGEHRLKNYKSVTSVNEFLNQDSGKVYTVVLESYTVDIPEGNTEEDTKMFVDTVVKLNLQKLGVAATSAPMHDDE

Variants of: B1
Conditions: with HAB1, Q9CAJ0

| Variant | effect of a mutation on the interaction |
| --- | --- |
| H115A | disrupting interaction |

Variants of: B2
Conditions: with HAB1, Q9CAJ0

| Variant | effect of a mutation on the interaction |
| --- | --- |
| R120A | decreasing interaction |
| H119A | decreasing interaction |
